{"source": "patent US20210388087A1", "about": "(Chugai, published 2021)", "binders": {"B1": {"name": "CE115HA000 Y58S one-arm antibody (antibody, human IgG1, kappa, L234A L235A, N297A, name in Kabat numbering)", "heavy": "QVQLVESGGGVVQPGRSLRLSCAASGFTFSNAWMHWVRQAPGKGLEWVAQIKAKSNNYATSYAESVKGRFTISRDDSKNSLYLQMNSLKTEDTAVYYCRYVHYGAYYGVDAWGQGTTVTVSSASTKGPSVFPLAPSSKSTSGGTAALGCLVKDYFPEPVTVSWNSGALTSGVHTFPAVLQSSGLYSLSSVVTVPSSSLGTQTYICNVNHKPSNTKVDKKVEPKSCDKTHTCPPCPAPEAAGGPSVFLFPPKPKDTLMISRTPEVTCVVVDVSHEDPEVKFNWYVDGVEVHNAKTKPREEQYASTYRVVSVLTVLHQDWLNGKEYKCKVSNKALPAPIEKTISKAKGQPREPQVYTLPPSRCELTKNQVSLSCAVKGFYPSDIAVEWESNGQPENNYKTTPPVLDSDGSFFLVSKLTVDKSRWQQGNVFSCSVMHEALHNHYTQKSLSLSPDYKDDDDK", "chain": "EPKSSDKTHTCPPCPAPELLGGPSVFLFPPKPKDTLMISRTPEVTCVVVDVSHEDPEVKFNWYVDGVEVHNAKTKPREEQYNSTYRVVSVLTVLHQDWLNGKEYKCKVSNKALPAPIEKTISKAKGQPREPQVCTLPPSRDELTKNQVSLWCLVKGFYPSDIAVEWESNGQPENNYKTTPPVLDSDGSFFLYSKLTVDKSRWQQGNVFSCSVMHEALHNRYTQKSLSLSP", "light": "DIVMTQSPLSLPVTPGEPASISCRSSQSLVHSNRNTYLHWYQQKPGQAPRLLIYKVSNRFSGVPDRFSGSGSGTDFTLKISRVEAEDVGVYYCGQGTQVPYTFGQGTKLEIKRTVAAPSVFIFPPSDEQLKSGTASVVCLLNNFYPREAKVQWKVDNALQSGNSQESVTEQDSKDSTYSLSSTLTLSKADYEKHKVYACEVTHQGLSSPVTKSFNRGEC"}, "B2": {"name": "CE115HA000 Y59E one-arm antibody (antibody, human IgG1, kappa, L234A L235A, N297A, name in Kabat numbering)", "heavy": "B1 heavy with S61Y, Y62E", "chain": "B1 chain", "light": "B1 light"}, "B3": {"name": "CE115HA000 Y59S one-arm antibody (antibody, human IgG1, kappa, L234A L235A, N297A, name in Kabat numbering)", "heavy": "B1 heavy with S61Y, Y62S", "chain": "B1 chain", "light": "B1 light"}, "B4": {"name": "CE115HA000 Y59D one-arm antibody (antibody, human IgG1, kappa, L234A L235A, N297A, name in Kabat numbering)", "heavy": "B1 heavy with S61Y, Y62D", "chain": "B1 chain", "light": "B1 light"}, "B5": {"name": "CE115HA000 Y97A one-arm antibody (antibody, human IgG1, kappa, L234A L235A, N297A, name in Kabat numbering)", "heavy": "B1 heavy with S61Y, Y103A", "chain": "B1 chain", "light": "B1 light"}, "B6": {"name": "CE115HA000 Y59A one-arm antibody (antibody, human IgG1, kappa, L234A L235A, N297A, name in Kabat numbering)", "heavy": "B1 heavy with S61Y, Y62A", "chain": "B1 chain", "light": "B1 light"}, "B7": {"name": "CE115HA000 Y97P one-arm antibody (antibody, human IgG1, kappa, L234A L235A, N297A, name in Kabat numbering)", "heavy": "B1 heavy with S61Y, Y103P", "chain": "B1 chain", "light": "B1 light"}, "B8": {"name": "CE115HA000 Y97R one-arm antibody (antibody, human IgG1, kappa, L234A L235A, N297A, name in Kabat numbering)", "heavy": "B1 heavy with S61Y, Y103R", "chain": "B1 chain", "light": "B1 light"}, "B9": {"name": "CE115HA000 Y97D one-arm antibody (antibody, human IgG1, kappa, L234A L235A, N297A, name in Kabat numbering)", "heavy": "B1 heavy with S61Y, Y103D", "chain": "B1 chain", "light": "B1 light"}, "B10": {"name": "CE115HA000 Y97G one-arm antibody (antibody, human IgG1, kappa, L234A L235A, N297A, name in Kabat numbering)", "heavy": "B1 heavy with S61Y, Y103G", "chain": "B1 chain", "light": "B1 light"}}, "note": "Numbering of substitutions follows the chain as printed. Names and notes keep the numbering of the source."}
{"target": "T1, CD3 epsilon homodimer protein (UniProt P07766 23-126)", "T1 construct": "immobilized on Sensor chip CM4 by amine coupling; also called CD3 (CD3 epsilon)", "T1 sequence (P07766 23-126)": "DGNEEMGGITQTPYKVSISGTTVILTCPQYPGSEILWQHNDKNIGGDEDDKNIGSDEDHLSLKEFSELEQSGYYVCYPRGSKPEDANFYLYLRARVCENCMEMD", "assay": "SPR (Biacore T200), CD3 epsilon homodimer on CM4 chip, one-arm antibody as analyte, 25 C;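 note: homodimer attached to the sensor surface via amine coupling, HBS-EP+ used as running buffer during binding runs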"}
{"binder": "B1", "ratio of amounts bound (altered form / CE115HA000)": 0.18}
{"binder": "B2", "ratio of amounts bound (altered form / CE115HA000)": 0.66}
{"binder": "B3", "ratio of amounts bound (altered form / CE115HA000)": 0.94}
{"binder": "B4", "ratio of amounts bound (altered form / CE115HA000)": 0.7}
{"binder": "B5", "ratio of amounts bound (altered form / CE115HA000)": 0.16}
{"binder": "B6", "ratio of amounts bound (altered form / CE115HA000)": 0.85}
{"binder": "B7", "ratio of amounts bound (altered form / CE115HA000)": 0.11}
{"binder": "B8", "ratio of amounts bound (altered form / CE115HA000)": 0.27}
{"binder": "B9", "ratio of amounts bound (altered form / CE115HA000)": 0.24}
{"binder": "B10", "ratio of amounts bound (altered form / CE115HA000)": 0.18}
